Assay results as given in patent publication US20140377289A1, “Metallodrugs Having Improved Pharmacological Properties, and Methods of Manufacture and Use Thereof” (MetalloPharm, LLC, priority 2011, published 2014).
Where no end group is shown, it is not given here. [ ]: non-standard residue; d: D form. Cha = N[C@@H](CC1CCCCC1)C(=O)O

Legend:
[1] = target: HCV protease (hepatitis C virus (HCV)); assay: apparent binding affinity for HCV protease; method not described
[2] = target: HCV protease (hepatitis C virus (HCV)); assay: cell-based or functional assay
[3] = target: T1, metalloproteinase ECE-1 protease, P42892; assay: apparent binding affinity for ECE-1; method not described
T1 chain: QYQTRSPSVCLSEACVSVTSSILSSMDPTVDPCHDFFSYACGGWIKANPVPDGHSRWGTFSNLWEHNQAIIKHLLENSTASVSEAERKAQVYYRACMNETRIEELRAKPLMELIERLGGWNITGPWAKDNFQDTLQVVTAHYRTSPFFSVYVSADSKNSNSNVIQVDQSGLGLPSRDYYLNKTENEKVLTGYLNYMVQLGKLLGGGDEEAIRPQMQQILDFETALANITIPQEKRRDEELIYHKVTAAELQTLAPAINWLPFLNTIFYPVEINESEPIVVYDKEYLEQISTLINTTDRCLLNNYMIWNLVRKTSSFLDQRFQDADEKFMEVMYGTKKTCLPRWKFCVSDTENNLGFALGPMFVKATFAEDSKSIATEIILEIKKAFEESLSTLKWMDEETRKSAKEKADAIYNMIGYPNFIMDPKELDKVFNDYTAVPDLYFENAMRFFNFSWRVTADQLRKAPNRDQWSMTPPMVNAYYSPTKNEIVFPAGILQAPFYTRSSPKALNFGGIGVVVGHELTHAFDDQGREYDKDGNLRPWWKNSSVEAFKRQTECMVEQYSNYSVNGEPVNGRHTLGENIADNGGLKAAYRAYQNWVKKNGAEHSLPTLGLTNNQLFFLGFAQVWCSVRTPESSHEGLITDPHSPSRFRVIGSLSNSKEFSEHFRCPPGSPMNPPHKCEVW

[4] = target: T1, metalloproteinase ECE-1 protease, P42892; assay: cell-based or functional assay
[5] = target: T2, S. aureus sortase A (S. aureus), Q2FV99; assay: apparent binding affinity (IC50) for S. aureus sortase A; assay not described
T2 chain: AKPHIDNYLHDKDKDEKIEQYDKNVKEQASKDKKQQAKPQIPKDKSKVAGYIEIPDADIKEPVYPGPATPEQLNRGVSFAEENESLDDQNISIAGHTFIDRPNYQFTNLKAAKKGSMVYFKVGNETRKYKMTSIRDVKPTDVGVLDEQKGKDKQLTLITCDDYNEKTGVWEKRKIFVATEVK

[6] = target: HCV protease (hepatitis C virus (HCV)); assay: affinity of metallopeptide for HCV protease; method not described
[7] = target: T3, B. anthracis lethal factor (B. anthracis), P15917
T3 chain: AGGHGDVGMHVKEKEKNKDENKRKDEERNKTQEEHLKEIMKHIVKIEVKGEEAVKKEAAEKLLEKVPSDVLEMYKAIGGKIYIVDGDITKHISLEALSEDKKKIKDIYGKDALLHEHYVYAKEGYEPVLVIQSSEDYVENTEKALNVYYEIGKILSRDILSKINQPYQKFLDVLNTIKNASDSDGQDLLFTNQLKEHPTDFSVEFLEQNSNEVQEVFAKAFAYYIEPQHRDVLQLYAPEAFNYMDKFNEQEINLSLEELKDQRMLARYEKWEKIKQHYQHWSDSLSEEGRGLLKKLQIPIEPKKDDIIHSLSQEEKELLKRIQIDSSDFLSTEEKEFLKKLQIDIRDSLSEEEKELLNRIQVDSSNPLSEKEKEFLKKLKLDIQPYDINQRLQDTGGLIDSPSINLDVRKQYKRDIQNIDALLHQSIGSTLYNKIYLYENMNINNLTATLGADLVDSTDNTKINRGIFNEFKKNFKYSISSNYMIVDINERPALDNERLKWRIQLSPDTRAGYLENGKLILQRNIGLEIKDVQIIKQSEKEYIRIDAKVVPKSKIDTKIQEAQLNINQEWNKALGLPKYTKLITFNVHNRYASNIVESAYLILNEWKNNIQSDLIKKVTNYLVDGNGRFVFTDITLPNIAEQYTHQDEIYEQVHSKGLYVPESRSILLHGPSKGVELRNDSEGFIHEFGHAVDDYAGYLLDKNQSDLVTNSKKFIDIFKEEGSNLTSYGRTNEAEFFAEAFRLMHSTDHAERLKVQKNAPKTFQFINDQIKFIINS

[8] = target: T3, B. anthracis lethal factor (B. …); assay: cell-based or functional assay
[9] = target: HCV protease (hepatitis C virus (HCV)); assay: inhibition constant for HCV protease (FIG. 1, left); method not described

GGHGD[dE]LI[Cha]T (also: Cu complex) [Cu-GGHGDeLI(Cha)T]
Ka [1]: 33000 M⁻¹
kinact [2]: 0.042 min⁻¹

GGHGGDF (modifications not checked) [Cu-GGHGGDF]
Ka [3]: 80000 M⁻¹
kinact [4]: 0.5 min⁻¹

GGHLPET (modifications not checked) [Cu-GGHLPET]
IC50 [5]: > 100 µM

GGHD[dE]LI[Cha]CP[Cha]DL [Gly-Gly-His-Asp-D-Glu-Leu-Ile-Cha-Cys-Pro-Cha-Asp-Leu]
affinity [6]: 10 nM

KGHK (modifications not checked) [Cu-KGHK]
Ka [7]: 125000 M⁻¹
kinact [8]: 0.035 min⁻¹

GGHLPETG (modifications not checked) [Cu-GGHLPETG]
IC50 [5]: > 100 µM

GCHP (modifications not checked) [Cu-GCHP]
Ka [7]: 45000 M⁻¹
kinact [8]: 0.077 min⁻¹

GGHGLPET (modifications not checked) [Cu-GGHGLPET]
IC50 [5]: > 100 µM

GGHGD[dE]LI[Cha]C-OH (also: Cu complex) [Cu-GGHGDeLI(Cha)C-CO2^-]
Ka [1]: 2e+06 M⁻¹
Ki [9]: 0.5 µM
kinact [2]: 0.0014 min⁻¹
rate constant for inactivation kinact [2]: < 0.083 h⁻¹

GGHGLPETG (modifications not checked) [Cu-…]
IC50 [5]: > 100 µM
